Measurements reported in patent US20080003614A1 (University of Texas, published 2008).

Tests used:
[1] = biological target: T1, FADD (UniProt Q13158 1-208, limits assumed); experiment: co-immunoprecipitation with MAVS antibody, overexpression in HEK293 cells (FIG. 12A)
T1 sequence (looked up): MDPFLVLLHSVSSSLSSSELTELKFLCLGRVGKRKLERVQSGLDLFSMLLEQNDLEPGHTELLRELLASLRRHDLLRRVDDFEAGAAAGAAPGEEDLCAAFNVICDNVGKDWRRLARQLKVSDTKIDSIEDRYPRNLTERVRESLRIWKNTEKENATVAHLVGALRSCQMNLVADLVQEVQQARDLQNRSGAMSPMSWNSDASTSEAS

[2] = biological target: T2, RIP1 (UniProt Q13546 1-671, limits assumed); experiment: as above
T2 construct: also called RIPI
T2 sequence (looked up): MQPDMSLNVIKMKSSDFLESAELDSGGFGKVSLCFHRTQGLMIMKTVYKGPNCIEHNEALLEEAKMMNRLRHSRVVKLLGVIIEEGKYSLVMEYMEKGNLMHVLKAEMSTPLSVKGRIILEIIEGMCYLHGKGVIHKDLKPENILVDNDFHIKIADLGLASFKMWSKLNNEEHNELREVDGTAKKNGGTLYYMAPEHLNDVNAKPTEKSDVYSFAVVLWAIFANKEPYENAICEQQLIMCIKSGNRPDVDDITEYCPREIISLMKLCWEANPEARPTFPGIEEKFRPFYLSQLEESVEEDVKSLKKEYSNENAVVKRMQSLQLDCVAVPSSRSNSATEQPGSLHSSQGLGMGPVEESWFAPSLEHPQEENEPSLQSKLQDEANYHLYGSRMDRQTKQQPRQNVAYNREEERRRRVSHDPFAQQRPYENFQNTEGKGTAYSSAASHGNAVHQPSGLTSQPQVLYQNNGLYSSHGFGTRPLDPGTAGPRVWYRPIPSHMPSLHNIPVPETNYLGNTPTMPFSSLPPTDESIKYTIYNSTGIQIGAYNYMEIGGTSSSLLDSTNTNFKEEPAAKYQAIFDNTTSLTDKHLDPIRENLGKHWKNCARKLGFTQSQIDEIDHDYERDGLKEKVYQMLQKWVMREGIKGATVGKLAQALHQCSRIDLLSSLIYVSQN

B1: HA-MAVS (N-terminal HA-tagged Mitochondrial Anti-Viral Signaling protein) (other)
chain: MPFAEDKTYKYICRNFSNFCNVDVVEILPYLPCLTARDQDRLRATCTLSGNRDTLWHLFNTLQRRPGWVEYFIAALRGCELVDLADEVASVYESYQPRTSDRPPDPLEPPSLPAERPGPPTPAAAHSIPYNSCREKEPSYPMPVQETQAPESPGENSEQALQTLSPRAIPRNPDGGPLESSSDLAALSPLTSSGHQEKDTELGSTHTAGATSSLTPSRGPVSPSVSFQPLARSTPRASRLPGPTGSVVSTGTSFSSSSPGLASAGAAEGKQGAESDQAEPIICSSGAEAPANSLPSKVPTTLMPVNTVALKVPANPASVSTVPSKLPTSSKPPGAVPSNALTNPAPSKLPINSTRAGMVPSKVPTSMVLTKVSASTVPTDGSSRNEETPAAPTPAGATGGSSAWLDSSFENRGLGSELSKPGVLASQVDSPFSGCFEDLAISASTSLGMGPCHGPEENEYKSEGTFGIHVAENPSIQLLEGNPGPPADPDGGPRPQADRKFQEREVPCHRPSPGALWLQVAVTGVLVVTLLVVLYRRRLH
notes: also called KIAA1271; pEF-HA-MAVS; not shown: N-terminal HA tag
B1: no binding [1]; no binding [2].
